Test results from article PMC9120031.

Biological target: FLAG-tagged V-ATPase a3 subunit (full-length) (UniProt Q9JHF5)
Experiment: co-IP; FLAG- and V5-tagged proteins co-expressed in HEK293T cells; lysed 48 h after transfection in IP buffer (1% Triton X-100, 10% glycerol, 50 mM Tris-HCl pH 7.4, 150 mM NaCl, 1 mM dithiothreitol, 1 mM EDTA); precipitated with anti-FLAG antibody; western blot with anti-V5 (or anti-A subunit) antibody

Sequence of UniProt Q9JHF5 (Q9JHF5 entry or part of it): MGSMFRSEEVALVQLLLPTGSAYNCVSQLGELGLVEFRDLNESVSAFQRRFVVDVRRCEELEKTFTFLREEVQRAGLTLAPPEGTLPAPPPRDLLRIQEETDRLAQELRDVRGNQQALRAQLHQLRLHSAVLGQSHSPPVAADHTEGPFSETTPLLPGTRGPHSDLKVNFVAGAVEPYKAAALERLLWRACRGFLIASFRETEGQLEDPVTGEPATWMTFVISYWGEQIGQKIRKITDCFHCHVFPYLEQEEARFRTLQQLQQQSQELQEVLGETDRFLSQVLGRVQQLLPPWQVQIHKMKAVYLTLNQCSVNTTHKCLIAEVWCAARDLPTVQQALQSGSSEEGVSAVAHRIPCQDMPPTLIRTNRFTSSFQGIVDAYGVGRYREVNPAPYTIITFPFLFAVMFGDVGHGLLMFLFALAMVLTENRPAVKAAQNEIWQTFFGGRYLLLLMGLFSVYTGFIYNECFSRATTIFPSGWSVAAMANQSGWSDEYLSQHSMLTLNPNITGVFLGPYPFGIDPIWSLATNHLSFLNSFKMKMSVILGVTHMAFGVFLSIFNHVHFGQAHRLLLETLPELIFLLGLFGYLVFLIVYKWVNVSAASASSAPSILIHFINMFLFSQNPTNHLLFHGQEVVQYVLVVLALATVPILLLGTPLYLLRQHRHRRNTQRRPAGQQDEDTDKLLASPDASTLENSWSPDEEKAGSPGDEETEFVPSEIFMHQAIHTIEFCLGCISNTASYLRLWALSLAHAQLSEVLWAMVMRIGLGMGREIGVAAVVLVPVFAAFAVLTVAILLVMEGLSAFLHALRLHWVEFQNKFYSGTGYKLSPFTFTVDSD

In the case of “V5-tagged GDP-fixed form of Rab7(T22N) (from UniProt P51150 1-207) (natural protein)”, the fold increase of Rab7 co-precipitated with a3 when V5-Mon1A and V5-Ccz1 were exogenously expressed, against without them is reported as 3 fold.
